Data from patent US20130323249A1 (published 2013).
Blank lines part the entries; values can stand above or below the binder they belong to.

Biological target: human PD-L1 expressed on the surface of cells (human, UniProt Q9NZQ7 19-290)
Test: FACS binding to human lymphocytes

human PD-L1 expressed on the surface of cells, sequence (Q9NZQ7 19-290): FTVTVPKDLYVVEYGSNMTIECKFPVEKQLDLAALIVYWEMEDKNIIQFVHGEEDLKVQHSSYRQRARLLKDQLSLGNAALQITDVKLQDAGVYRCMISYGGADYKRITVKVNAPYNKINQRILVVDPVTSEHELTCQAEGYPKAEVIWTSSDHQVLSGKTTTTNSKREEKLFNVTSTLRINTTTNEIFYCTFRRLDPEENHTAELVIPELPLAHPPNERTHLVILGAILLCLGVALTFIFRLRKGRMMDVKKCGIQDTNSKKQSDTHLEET

EC50: 0.021 µg/mL
B1: H10 anti-PD-L1 antibody (antibody, V domains shown)
VH: EVQLVQSGGGLVQPGGSLRLSCAASGFTFSSYSMNWVRQAPGKGLEWVSYISSSSSTIYYADSVKGRFTISRDNAKNSLYLQMNSLRDEDTAVYYCARGDYYYGMDVWGQGTTVTVSS
VL: EIVLTQSPSSLSASIGDRVTLTCRASQSIRRFLNWYQQKPGKAPELLIYTASSLQSGVPSRFSGSGSGTDFTLTINSLQPEDFATYYCQQSYAVSPYTFGQGTKVEIR

EC50: 0.03 µg/mL
B2: H6 anti-PD-L1 antibody (antibody, V domains shown)
VH: QMQLVQSGAEVKKPGSSVKVSCKASGGTFSSYAISWVRQAPGQGLEWMGGIIPIFGTANYAQKFQGRVTITADESTSTAYMELSSLRSEDTAVYYCARGNIVATITPLDYWGQGTLVTVSS
VL: SYELMQPPSVSVAPGKTATIACGGENIGRKTVHWYQQKPGQAPVLVIYYDSDRPSGIPERFSGSNSGNTATLTISRVEAGDEADYYCQVWDSSSDHRIFGGGTKLTVL
